Numbered stars: 1 amine (or outer) side, 2 acyl side, 3 side chain; on linkers, the order of the positions; unused ones are H or OH. Square brackets hold non-standard residues; d marks the D form. Side chains are listed from the residue outwards. Ends that are not written are not given here. * marks the point of attachment. C18 diacid = O=C(O)CCCCCCCCCCCCCCCCC(=O)*; C16 diacid = O=C(O)CCCCCCCCCCCCCCC(=O)*; γGlu = O=C(O)[C@H](CCC(=O)[*:2])N[*:1]; Met(O2) = CS(=O)(=O)CC[C@H](N)C(=O)O; αMeD = C[C@](N)(CC(=O)O)C(=O)O; AEEA = NCCOCCOCC(=O)O; Aib = CC(C)(N)C(=O)O
Tests used:
[1] = biological target: human Glucagon receptor (GCGR) (human, UniProt P47871 26-477); experiment: cell-based or functional assay
[2] = biological target: human GLP-1 receptor (GLP1R) (human, UniProt P43220 24-463); experiment: cell-based or functional assay

human Glucagon receptor (GCGR), sequence (P47871 26-477): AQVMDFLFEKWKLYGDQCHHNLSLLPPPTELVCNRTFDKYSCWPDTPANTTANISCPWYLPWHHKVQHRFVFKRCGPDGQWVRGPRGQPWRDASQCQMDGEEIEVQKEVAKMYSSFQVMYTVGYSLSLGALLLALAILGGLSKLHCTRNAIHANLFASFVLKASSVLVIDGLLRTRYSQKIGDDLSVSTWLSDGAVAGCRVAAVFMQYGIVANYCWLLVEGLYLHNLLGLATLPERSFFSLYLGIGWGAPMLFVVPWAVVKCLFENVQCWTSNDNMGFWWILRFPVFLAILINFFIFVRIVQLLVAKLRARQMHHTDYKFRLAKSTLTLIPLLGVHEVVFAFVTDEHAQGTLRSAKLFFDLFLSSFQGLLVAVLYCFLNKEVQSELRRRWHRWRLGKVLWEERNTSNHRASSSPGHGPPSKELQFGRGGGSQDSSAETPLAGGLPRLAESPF

Binder | GCGR EC50 human [1] | GLP1R EC50 human [2]
H[Aib]QGTFTSDYSKYLDARAAQK([AEEA-AEEA-γGlu-C16 diacid])FVQWL[Met(O2)][γGlu]T-NH2 (N-terminus assumed; SMILES CC(C)C[C@H](NC(=O)[C@H](Cc1ccc(O)cc1)NC(=O)[C@H](CCCCN)NC(=O)[C@H](CO)NC(=O)[C@H](Cc1ccc(O)cc1)NC(=O)[C@H](CC(=O)O)NC(=O)[C@H](CO)NC(=O)[C@@H](NC(=O)[C@H](Cc1ccccc1)NC(=O)[C@@H](NC(=O)CNC(=O)[C@H](CCC(N)=O)NC(=O)C(C)(C)NC(=O)[C@@H](N)Cc1c[nH]cn1)[C@@H](C)O)[C@@H](C)O)C(=O)N[C@@H](CC(=O)O)C(=O)N[C@@H](C)C(=O)N[C@@H](CCCNC(=N)N)C(=O)N[C@@H](C)C(=O)N[C@@H](C)C(=O)N[C@@H](CCC(N)=O)C(=O)N[C@@H](CCCCNC(=O)COCCOCCNC(=O)COCCOCCNC(=O)CC[C@H](NC(=O)CCCCCCCCCCCCCCC(=O)O)C(=O)O)C(=O)N[C@@H](Cc1ccccc1)C(=O)N[C@H](C(=O)N[C@@H](CCC(N)=O)C(=O)N[C@@H](Cc1c[nH]c2ccccc12)C(=O)N[C@@H](CC(C)C)C(=O)N[C@@H](CCS(C)(=O)=O)C(=O)N[C@@H](CCC(=O)N[C@H](C(N)=O)[C@@H](C)O)C(=O)O)C(C)C) [TP827] | 0.133 nM | 0.081 nM
H[Aib]QGTFTSDYSKYLD[Aib]RAAQDFVK([AEEA-AEEA-γGlu-C16 diacid])WL[Met(O2)]ET-NH2 (N-terminus assumed; SMILES CC(C)C[C@H](NC(=O)[C@H](Cc1c[nH]c2ccccc12)NC(=O)[C@H](CCCCNC(=O)COCCOCCNC(=O)COCCOCCNC(=O)CC[C@H](NC(=O)CCCCCCCCCCCCCCC(=O)O)C(=O)O)NC(=O)[C@@H](NC(=O)[C@H](Cc1ccccc1)NC(=O)[C@H](CC(=O)O)NC(=O)[C@H](CCC(N)=O)NC(=O)[C@H](C)NC(=O)[C@H](C)NC(=O)[C@H](CCCNC(=N)N)NC(=O)C(C)(C)NC(=O)[C@H](CC(=O)O)NC(=O)[C@H](CC(C)C)NC(=O)[C@H](Cc1ccc(O)cc1)NC(=O)[C@H](CCCCN)NC(=O)[C@H](CO)NC(=O)[C@H](Cc1ccc(O)cc1)NC(=O)[C@H](CC(=O)O)NC(=O)[C@H](CO)NC(=O)[C@@H](NC(=O)[C@H](Cc1ccccc1)NC(=O)[C@@H](NC(=O)CNC(=O)[C@H](CCC(N)=O)NC(=O)C(C)(C)NC(=O)[C@@H](N)Cc1c[nH]cn1)[C@@H](C)O)[C@@H](C)O)C(C)C)C(=O)N[C@@H](CCS(C)(=O)=O)C(=O)N[C@@H](CCC(=O)O)C(=O)N[C@H](C(N)=O)[C@@H](C)O) [TP815] | 0.084 nM | 0.12 nM
H[Aib]QGTFTSDYSKYLDARAAK([AEEA-AEEA-γGlu-C16 diacid])DFVQWL[Met(O2)][γGlu]T-NH2 (N-terminus assumed; SMILES CC(C)C[C@H](NC(=O)[C@H](Cc1ccc(O)cc1)NC(=O)[C@H](CCCCN)NC(=O)[C@H](CO)NC(=O)[C@H](Cc1ccc(O)cc1)NC(=O)[C@H](CC(=O)O)NC(=O)[C@H](CO)NC(=O)[C@@H](NC(=O)[C@H](Cc1ccccc1)NC(=O)[C@@H](NC(=O)CNC(=O)[C@H](CCC(N)=O)NC(=O)C(C)(C)NC(=O)[C@@H](N)Cc1c[nH]cn1)[C@@H](C)O)[C@@H](C)O)C(=O)N[C@@H](CC(=O)O)C(=O)N[C@@H](C)C(=O)N[C@@H](CCCNC(=N)N)C(=O)N[C@@H](C)C(=O)N[C@@H](C)C(=O)N[C@@H](CCCCNC(=O)COCCOCCNC(=O)COCCOCCNC(=O)CC[C@H](NC(=O)CCCCCCCCCCCCCCC(=O)O)C(=O)O)C(=O)N[C@@H](CC(=O)O)C(=O)N[C@@H](Cc1ccccc1)C(=O)N[C@H](C(=O)N[C@@H](CCC(N)=O)C(=O)N[C@@H](Cc1c[nH]c2ccccc12)C(=O)N[C@@H](CC(C)C)C(=O)N[C@@H](CCS(C)(=O)=O)C(=O)N[C@@H](CCC(=O)N[C@H](C(N)=O)[C@@H](C)O)C(=O)O)C(C)C) [TP826] | 0.67 nM | 0.253 nM
H[Aib]QGTFTSDYSKYLDARAAQK([AEEA-AEEA-γGlu-C16 diacid])FVQWL[Met(O2)]ET-NH2 (N-terminus assumed; SMILES CC(C)C[C@H](NC(=O)[C@H](Cc1ccc(O)cc1)NC(=O)[C@H](CCCCN)NC(=O)[C@H](CO)NC(=O)[C@H](Cc1ccc(O)cc1)NC(=O)[C@H](CC(=O)O)NC(=O)[C@H](CO)NC(=O)[C@@H](NC(=O)[C@H](Cc1ccccc1)NC(=O)[C@@H](NC(=O)CNC(=O)[C@H](CCC(N)=O)NC(=O)C(C)(C)NC(=O)[C@@H](N)Cc1c[nH]cn1)[C@@H](C)O)[C@@H](C)O)C(=O)N[C@@H](CC(=O)O)C(=O)N[C@@H](C)C(=O)N[C@@H](CCCNC(=N)N)C(=O)N[C@@H](C)C(=O)N[C@@H](C)C(=O)N[C@@H](CCC(N)=O)C(=O)N[C@@H](CCCCNC(=O)COCCOCCNC(=O)COCCOCCNC(=O)CC[C@H](NC(=O)CCCCCCCCCCCCCCC(=O)O)C(=O)O)C(=O)N[C@@H](Cc1ccccc1)C(=O)N[C@H](C(=O)N[C@@H](CCC(N)=O)C(=O)N[C@@H](Cc1c[nH]c2ccccc12)C(=O)N[C@@H](CC(C)C)C(=O)N[C@@H](CCS(C)(=O)=O)C(=O)N[C@@H](CCC(=O)O)C(=O)N[C@H](C(N)=O)[C@@H](C)O)C(C)C) [TP825] | 0.07 nM | 0.036 nM
H[Aib]QGTFTSDYSKYLD[Aib]RAAQDFVK([AEEA-AEEA-γGlu-C16 diacid])WL[Met(O2)][γGlu]T-NH2 (N-terminus assumed; SMILES CC(C)C[C@H](NC(=O)[C@H](Cc1c[nH]c2ccccc12)NC(=O)[C@H](CCCCNC(=O)COCCOCCNC(=O)COCCOCCNC(=O)CC[C@H](NC(=O)CCCCCCCCCCCCCCC(=O)O)C(=O)O)NC(=O)[C@@H](NC(=O)[C@H](Cc1ccccc1)NC(=O)[C@H](CC(=O)O)NC(=O)[C@H](CCC(N)=O)NC(=O)[C@H](C)NC(=O)[C@H](C)NC(=O)[C@H](CCCNC(=N)N)NC(=O)C(C)(C)NC(=O)[C@H](CC(=O)O)NC(=O)[C@H](CC(C)C)NC(=O)[C@H](Cc1ccc(O)cc1)NC(=O)[C@H](CCCCN)NC(=O)[C@H](CO)NC(=O)[C@H](Cc1ccc(O)cc1)NC(=O)[C@H](CC(=O)O)NC(=O)[C@H](CO)NC(=O)[C@@H](NC(=O)[C@H](Cc1ccccc1)NC(=O)[C@@H](NC(=O)CNC(=O)[C@H](CCC(N)=O)NC(=O)C(C)(C)NC(=O)[C@@H](N)Cc1c[nH]cn1)[C@@H](C)O)[C@@H](C)O)C(C)C)C(=O)N[C@@H](CCS(C)(=O)=O)C(=O)N[C@@H](CCC(=O)N[C@H](C(N)=O)[C@@H](C)O)C(=O)O) [TP828] | 0.228 nM | 0.587 nM
H[Aib]QGTFTSDYSKYLDERAAK([AEEA-AEEA-γGlu-C20‑OH])DFVQWL[Met(O2)][αMeD]T-NH2 [TP589] | 19.8 nM | 2.07 nM
H[Aib]QGTFTSDYSKYLD[Aib]RAAQDFVK([AEEA-AEEA-γGlu-C18 diacid])WL[Met(O2)]DT-NH2 (N-terminus assumed; SMILES CC(C)C[C@H](NC(=O)[C@H](Cc1c[nH]c2ccccc12)NC(=O)[C@H](CCCCNC(=O)COCCOCCNC(=O)COCCOCCNC(=O)CC[C@H](NC(=O)CCCCCCCCCCCCCCCCC(=O)O)C(=O)O)NC(=O)[C@@H](NC(=O)[C@H](Cc1ccccc1)NC(=O)[C@H](CC(=O)O)NC(=O)[C@H](CCC(N)=O)NC(=O)[C@H](C)NC(=O)[C@H](C)NC(=O)[C@H](CCCNC(=N)N)NC(=O)C(C)(C)NC(=O)[C@H](CC(=O)O)NC(=O)[C@H](CC(C)C)NC(=O)[C@H](Cc1ccc(O)cc1)NC(=O)[C@H](CCCCN)NC(=O)[C@H](CO)NC(=O)[C@H](Cc1ccc(O)cc1)NC(=O)[C@H](CC(=O)O)NC(=O)[C@H](CO)NC(=O)[C@@H](NC(=O)[C@H](Cc1ccccc1)NC(=O)[C@@H](NC(=O)CNC(=O)[C@H](CCC(N)=O)NC(=O)C(C)(C)NC(=O)[C@@H](N)Cc1c[nH]cn1)[C@@H](C)O)[C@@H](C)O)C(C)C)C(=O)N[C@@H](CCS(C)(=O)=O)C(=O)N[C@@H](CC(=O)O)C(=O)N[C@H](C(N)=O)[C@@H](C)O) [TP575] | 0.595 nM | 0.866 nM
H[Aib]QGTFTSDYSKYLD[Aib]RAAK([AEEA-AEEA-γGlu-C20‑OH])DFVQWL[Met(O2)]DT-NH2 [TP564] | 1.25 nM | 1.22 nM
H[Aib]QGTFTSDYSKYLDARAAK([AEEA-AEEA-γGlu-C16 diacid])DFVQWL[Met(O2)]ET-NH2 (N-terminus assumed; SMILES CC(C)C[C@H](NC(=O)[C@H](Cc1ccc(O)cc1)NC(=O)[C@H](CCCCN)NC(=O)[C@H](CO)NC(=O)[C@H](Cc1ccc(O)cc1)NC(=O)[C@H](CC(=O)O)NC(=O)[C@H](CO)NC(=O)[C@@H](NC(=O)[C@H](Cc1ccccc1)NC(=O)[C@@H](NC(=O)CNC(=O)[C@H](CCC(N)=O)NC(=O)C(C)(C)NC(=O)[C@@H](N)Cc1c[nH]cn1)[C@@H](C)O)[C@@H](C)O)C(=O)N[C@@H](CC(=O)O)C(=O)N[C@@H](C)C(=O)N[C@@H](CCCNC(=N)N)C(=O)N[C@@H](C)C(=O)N[C@@H](C)C(=O)N[C@@H](CCCCNC(=O)COCCOCCNC(=O)COCCOCCNC(=O)CC[C@H](NC(=O)CCCCCCCCCCCCCCC(=O)O)C(=O)O)C(=O)N[C@@H](CC(=O)O)C(=O)N[C@@H](Cc1ccccc1)C(=O)N[C@H](C(=O)N[C@@H](CCC(N)=O)C(=O)N[C@@H](Cc1c[nH]c2ccccc12)C(=O)N[C@@H](CC(C)C)C(=O)N[C@@H](CCS(C)(=O)=O)C(=O)N[C@@H](CCC(=O)O)C(=O)N[C@H](C(N)=O)[C@@H](C)O)C(C)C) [TP814] | 0.156 nM | 0.078 nM

— patent US20200270325A1 (Merck Sharp & Dohme, published 2020)
